Experimental data taken from patent US20050002904A1 (published 2005).
Where no end group is shown, it is not given here.

Columns and labels:
β-catenin = target: T1, β-catenin (human, UniProt P35222 2-781); assay: co-immunoprecipitation from HUVECs infected with wild-type PAP2b, western blot
T1 sequence (looked up): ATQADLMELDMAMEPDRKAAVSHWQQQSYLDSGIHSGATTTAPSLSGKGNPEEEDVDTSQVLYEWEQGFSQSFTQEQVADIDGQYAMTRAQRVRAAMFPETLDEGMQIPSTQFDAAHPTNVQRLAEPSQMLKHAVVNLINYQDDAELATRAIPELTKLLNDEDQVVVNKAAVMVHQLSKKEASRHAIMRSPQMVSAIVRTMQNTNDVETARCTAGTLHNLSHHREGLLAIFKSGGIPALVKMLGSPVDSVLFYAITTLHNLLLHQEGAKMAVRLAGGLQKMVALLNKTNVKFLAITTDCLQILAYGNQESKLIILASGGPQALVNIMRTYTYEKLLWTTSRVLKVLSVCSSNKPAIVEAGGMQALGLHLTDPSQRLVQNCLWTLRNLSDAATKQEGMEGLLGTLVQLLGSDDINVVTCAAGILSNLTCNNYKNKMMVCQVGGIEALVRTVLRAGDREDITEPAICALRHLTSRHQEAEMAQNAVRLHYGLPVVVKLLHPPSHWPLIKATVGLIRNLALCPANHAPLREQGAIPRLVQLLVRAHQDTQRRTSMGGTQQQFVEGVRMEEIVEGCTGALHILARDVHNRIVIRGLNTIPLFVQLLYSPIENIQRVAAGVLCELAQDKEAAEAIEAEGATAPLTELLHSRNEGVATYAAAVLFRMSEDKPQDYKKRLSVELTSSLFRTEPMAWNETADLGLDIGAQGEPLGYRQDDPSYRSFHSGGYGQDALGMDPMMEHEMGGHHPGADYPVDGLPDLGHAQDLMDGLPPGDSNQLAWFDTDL

VE-cadherin = target: T2, VE-cadherin (human, UniProt P33151 48-784); assay: as above
T2 sequence (looked up): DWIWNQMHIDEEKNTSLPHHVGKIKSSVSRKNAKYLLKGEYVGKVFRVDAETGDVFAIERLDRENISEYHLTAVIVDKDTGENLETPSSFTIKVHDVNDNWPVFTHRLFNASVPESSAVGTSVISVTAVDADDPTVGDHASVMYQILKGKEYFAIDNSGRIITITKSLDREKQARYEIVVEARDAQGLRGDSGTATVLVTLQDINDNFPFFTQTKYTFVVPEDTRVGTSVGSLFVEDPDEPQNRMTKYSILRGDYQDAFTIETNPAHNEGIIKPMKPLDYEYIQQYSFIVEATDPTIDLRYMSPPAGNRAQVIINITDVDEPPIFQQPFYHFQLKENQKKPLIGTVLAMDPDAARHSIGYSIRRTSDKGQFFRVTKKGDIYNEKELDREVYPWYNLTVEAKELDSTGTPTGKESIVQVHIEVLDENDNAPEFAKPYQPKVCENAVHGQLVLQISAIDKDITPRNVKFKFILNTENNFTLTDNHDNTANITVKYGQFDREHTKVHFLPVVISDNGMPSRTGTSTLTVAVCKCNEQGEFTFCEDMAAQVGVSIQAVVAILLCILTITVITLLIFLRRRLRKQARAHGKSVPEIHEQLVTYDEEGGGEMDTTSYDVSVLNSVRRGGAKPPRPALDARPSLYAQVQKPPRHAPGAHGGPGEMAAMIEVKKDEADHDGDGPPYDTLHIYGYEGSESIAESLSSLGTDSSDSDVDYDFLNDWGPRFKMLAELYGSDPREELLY

γ-catenin (plakoglobin) = target: T3, γ-catenin (plakoglobin) (human, UniProt P14923 1-745); assay: as above
T3 sequence (looked up): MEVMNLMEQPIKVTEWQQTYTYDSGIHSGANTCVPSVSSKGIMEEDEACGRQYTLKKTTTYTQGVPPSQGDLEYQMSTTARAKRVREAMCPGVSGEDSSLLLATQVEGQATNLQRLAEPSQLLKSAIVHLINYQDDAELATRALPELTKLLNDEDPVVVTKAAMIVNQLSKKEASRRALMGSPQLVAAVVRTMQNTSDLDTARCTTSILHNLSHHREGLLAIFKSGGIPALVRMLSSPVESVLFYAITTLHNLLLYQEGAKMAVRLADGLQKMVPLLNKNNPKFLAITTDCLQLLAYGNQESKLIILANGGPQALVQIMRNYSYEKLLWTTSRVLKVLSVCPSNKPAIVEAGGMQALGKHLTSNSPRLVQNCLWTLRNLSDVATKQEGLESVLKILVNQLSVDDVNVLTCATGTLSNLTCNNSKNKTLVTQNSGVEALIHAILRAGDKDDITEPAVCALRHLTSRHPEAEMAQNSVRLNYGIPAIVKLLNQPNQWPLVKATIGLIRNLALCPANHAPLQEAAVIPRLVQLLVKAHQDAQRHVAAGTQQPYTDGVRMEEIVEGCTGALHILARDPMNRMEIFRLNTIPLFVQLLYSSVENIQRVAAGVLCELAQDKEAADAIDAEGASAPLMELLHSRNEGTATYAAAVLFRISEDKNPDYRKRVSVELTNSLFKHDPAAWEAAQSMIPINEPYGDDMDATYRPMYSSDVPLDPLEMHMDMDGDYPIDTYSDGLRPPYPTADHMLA

[1] = target: VEGF receptor-2 (VEGFR-2) (human, UniProt P35968 20-1356); assay: co-immunoprecipitation from HUVECs, western blot of identical blots
CD36 = CD36 (human, UniProt P16671 2-472); assay: as above
Tie-2 = Tie-2 (human, UniProt Q02763 23-1124); assay: as above
PECAM-1 = PECAM-1 (human, UniProt P16284 28-738); assay: as above
p120catenin [2] = target: T4, p120catenin (human, UniProt O60716 1-968, limits assumed); assay: cell-based or functional assay
T4 sequence (looked up): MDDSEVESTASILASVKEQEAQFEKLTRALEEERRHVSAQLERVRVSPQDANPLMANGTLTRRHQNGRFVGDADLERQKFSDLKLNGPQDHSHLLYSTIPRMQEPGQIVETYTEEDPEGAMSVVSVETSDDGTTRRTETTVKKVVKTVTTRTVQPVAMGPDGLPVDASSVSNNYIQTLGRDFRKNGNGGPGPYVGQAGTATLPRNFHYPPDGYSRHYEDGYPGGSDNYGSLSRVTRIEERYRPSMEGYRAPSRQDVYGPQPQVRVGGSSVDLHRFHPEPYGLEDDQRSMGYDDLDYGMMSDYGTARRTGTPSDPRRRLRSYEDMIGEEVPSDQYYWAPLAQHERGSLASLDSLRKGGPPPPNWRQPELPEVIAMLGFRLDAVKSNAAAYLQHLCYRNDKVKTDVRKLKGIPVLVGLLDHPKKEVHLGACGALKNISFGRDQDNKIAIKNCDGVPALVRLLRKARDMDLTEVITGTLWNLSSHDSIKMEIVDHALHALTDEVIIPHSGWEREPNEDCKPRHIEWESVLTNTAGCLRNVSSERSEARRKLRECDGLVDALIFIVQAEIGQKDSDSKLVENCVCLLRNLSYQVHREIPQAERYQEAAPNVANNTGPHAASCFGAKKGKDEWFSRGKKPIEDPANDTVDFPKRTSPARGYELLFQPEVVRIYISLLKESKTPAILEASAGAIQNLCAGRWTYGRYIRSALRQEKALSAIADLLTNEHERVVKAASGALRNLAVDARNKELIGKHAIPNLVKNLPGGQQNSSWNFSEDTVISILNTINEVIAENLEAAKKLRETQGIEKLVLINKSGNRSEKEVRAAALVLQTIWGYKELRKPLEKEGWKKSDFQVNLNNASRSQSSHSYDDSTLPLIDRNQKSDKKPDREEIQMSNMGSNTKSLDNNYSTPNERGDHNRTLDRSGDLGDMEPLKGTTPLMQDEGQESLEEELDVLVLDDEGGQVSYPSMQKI

p120catenin [3] = target: T4, p120catenin; assay: anti-HA co-immunoprecipitation from infected endothelial cells, anti-p120 catenin blot
[4] = target: T5, αvβ3 integrin of endothelial cells (human, UniProt P06756 31-1048; P05106 27-788); assay: GST pull-down from 35S-labeled endothelial cell lysate, re-immunoprecipitation with LM609
T5 construct: whole, on cells; On cells in the adhesion assays

soluble α2β1 integrin = soluble α2β1 integrin (UniProt P17301 30-1132; P05556 21-728); assay: solid-phase ligand binding ELISA, integrin immobilized
soluble αvβ5 integrin = soluble αvβ5 integrin (UniProt P06756 31-992; P18084 24-719); assay: as above
[5] = target: T6, α5β1 integrin of endothelial cells (human, UniProt P08648 42-1049; P05556 21-798); assay: GST pull-down from 35S-labeled endothelial cell lysate, re-immunoprecipitation with P1D6
T6 construct: whole, on cells; On cells in the adhesion assays
T6 sequence (P08648 42-1049, chain 1 of 2): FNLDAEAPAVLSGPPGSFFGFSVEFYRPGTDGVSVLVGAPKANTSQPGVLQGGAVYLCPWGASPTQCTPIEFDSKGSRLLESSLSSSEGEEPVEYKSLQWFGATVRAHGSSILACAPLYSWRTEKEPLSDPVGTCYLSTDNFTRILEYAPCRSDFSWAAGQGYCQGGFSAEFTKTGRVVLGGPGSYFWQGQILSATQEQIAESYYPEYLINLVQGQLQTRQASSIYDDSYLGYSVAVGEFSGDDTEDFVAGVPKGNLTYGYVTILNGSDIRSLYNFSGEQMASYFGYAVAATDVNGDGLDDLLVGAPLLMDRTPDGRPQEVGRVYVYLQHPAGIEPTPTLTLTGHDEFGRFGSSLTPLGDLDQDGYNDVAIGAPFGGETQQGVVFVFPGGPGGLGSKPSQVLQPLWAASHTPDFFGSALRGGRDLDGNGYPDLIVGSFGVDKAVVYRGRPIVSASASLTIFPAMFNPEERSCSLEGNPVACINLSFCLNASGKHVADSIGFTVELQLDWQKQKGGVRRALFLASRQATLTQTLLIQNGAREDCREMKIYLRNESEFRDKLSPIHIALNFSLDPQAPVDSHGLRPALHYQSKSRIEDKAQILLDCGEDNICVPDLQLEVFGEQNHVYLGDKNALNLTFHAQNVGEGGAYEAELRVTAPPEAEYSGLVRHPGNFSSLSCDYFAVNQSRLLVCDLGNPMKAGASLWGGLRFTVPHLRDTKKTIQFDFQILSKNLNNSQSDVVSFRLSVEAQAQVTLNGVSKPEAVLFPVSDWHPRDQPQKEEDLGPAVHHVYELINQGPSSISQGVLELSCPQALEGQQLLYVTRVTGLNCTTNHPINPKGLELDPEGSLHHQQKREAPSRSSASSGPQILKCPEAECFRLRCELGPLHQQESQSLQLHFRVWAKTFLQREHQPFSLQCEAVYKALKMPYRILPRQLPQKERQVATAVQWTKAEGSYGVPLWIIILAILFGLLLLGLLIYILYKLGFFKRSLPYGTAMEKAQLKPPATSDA
T6 sequence (P05556 21-798, chain 2 of 2): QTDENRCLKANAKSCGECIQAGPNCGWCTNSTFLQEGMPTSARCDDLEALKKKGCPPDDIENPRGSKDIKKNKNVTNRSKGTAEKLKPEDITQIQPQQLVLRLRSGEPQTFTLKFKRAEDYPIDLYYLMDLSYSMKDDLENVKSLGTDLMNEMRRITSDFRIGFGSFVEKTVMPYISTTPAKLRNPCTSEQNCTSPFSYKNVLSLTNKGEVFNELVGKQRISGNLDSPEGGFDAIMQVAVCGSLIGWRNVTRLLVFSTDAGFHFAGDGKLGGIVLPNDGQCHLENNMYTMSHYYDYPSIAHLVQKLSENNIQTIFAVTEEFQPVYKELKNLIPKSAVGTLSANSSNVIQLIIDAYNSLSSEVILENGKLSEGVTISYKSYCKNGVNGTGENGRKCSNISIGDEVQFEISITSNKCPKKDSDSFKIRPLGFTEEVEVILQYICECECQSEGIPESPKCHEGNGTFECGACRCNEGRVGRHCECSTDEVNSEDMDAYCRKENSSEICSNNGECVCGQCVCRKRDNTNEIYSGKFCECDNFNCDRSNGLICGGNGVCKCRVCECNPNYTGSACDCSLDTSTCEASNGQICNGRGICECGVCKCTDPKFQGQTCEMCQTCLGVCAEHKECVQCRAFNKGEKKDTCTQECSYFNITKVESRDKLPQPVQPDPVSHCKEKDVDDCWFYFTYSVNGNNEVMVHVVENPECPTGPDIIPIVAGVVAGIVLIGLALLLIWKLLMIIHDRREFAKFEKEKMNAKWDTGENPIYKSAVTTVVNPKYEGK

VEGF receptor-2 (VEGFR-2), sequence (P35968 20-1356 limits assumed): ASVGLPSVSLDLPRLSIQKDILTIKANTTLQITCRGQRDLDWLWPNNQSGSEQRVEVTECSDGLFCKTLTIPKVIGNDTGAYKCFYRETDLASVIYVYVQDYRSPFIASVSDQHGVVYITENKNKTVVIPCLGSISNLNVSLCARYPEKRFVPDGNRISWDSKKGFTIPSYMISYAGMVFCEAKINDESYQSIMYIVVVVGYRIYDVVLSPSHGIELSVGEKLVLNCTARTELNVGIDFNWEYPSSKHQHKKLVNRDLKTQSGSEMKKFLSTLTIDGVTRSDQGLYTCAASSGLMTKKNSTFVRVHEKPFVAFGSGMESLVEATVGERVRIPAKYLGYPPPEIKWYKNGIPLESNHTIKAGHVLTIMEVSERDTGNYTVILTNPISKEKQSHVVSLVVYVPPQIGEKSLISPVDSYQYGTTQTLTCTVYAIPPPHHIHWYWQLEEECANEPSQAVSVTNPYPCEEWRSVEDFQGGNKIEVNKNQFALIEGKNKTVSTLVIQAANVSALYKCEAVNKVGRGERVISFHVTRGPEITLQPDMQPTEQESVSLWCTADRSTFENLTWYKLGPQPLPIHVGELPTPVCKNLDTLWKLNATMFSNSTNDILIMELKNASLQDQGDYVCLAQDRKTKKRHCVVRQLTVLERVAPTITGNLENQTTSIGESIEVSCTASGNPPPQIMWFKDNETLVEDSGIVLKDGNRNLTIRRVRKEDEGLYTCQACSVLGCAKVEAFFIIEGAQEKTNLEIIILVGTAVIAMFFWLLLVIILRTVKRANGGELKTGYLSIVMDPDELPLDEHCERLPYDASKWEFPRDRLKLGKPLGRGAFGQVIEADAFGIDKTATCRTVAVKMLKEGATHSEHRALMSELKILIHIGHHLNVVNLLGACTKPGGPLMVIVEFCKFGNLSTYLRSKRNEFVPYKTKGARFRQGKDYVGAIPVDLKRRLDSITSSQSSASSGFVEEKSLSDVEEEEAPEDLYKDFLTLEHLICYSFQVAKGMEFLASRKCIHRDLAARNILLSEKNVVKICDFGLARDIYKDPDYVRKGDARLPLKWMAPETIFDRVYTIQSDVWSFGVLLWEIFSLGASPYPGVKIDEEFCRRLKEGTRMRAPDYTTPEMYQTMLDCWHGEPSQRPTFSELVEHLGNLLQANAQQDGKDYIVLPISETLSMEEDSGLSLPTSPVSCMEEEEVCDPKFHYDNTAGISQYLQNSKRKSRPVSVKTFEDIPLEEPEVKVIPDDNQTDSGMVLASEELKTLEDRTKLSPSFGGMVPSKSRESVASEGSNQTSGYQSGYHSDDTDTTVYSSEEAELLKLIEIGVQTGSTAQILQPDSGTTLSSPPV
soluble α2β1 integrin, sequence (P17301 30-1132, chain 1 of 2): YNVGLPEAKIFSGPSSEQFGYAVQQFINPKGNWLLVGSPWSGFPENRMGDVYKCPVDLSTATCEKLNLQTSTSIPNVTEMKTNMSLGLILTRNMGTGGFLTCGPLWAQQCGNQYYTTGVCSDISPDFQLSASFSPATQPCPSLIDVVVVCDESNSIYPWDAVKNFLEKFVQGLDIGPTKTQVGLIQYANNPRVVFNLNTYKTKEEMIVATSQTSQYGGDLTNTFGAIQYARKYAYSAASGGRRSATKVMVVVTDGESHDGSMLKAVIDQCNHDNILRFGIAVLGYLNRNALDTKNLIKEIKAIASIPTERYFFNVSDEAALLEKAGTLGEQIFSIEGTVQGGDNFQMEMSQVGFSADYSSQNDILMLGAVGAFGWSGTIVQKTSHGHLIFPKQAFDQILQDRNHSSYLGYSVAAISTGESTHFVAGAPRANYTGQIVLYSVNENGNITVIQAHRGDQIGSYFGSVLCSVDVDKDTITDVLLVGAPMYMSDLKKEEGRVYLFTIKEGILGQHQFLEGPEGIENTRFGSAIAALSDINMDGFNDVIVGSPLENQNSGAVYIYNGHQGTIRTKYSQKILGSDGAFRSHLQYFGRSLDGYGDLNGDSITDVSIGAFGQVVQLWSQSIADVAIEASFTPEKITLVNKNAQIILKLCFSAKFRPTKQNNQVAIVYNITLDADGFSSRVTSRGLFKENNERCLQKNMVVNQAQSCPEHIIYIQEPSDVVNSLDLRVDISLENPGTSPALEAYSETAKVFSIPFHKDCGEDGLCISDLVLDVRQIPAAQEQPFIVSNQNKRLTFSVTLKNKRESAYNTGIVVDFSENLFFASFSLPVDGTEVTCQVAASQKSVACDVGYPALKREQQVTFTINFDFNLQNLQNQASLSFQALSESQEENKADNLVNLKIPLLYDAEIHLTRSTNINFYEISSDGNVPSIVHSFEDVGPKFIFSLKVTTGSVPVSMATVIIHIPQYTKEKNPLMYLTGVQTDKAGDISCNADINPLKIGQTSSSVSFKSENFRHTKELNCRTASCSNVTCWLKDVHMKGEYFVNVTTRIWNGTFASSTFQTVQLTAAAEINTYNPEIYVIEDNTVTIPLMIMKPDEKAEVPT
soluble α2β1 integrin, sequence (P05556 21-728, chain 2 of 2): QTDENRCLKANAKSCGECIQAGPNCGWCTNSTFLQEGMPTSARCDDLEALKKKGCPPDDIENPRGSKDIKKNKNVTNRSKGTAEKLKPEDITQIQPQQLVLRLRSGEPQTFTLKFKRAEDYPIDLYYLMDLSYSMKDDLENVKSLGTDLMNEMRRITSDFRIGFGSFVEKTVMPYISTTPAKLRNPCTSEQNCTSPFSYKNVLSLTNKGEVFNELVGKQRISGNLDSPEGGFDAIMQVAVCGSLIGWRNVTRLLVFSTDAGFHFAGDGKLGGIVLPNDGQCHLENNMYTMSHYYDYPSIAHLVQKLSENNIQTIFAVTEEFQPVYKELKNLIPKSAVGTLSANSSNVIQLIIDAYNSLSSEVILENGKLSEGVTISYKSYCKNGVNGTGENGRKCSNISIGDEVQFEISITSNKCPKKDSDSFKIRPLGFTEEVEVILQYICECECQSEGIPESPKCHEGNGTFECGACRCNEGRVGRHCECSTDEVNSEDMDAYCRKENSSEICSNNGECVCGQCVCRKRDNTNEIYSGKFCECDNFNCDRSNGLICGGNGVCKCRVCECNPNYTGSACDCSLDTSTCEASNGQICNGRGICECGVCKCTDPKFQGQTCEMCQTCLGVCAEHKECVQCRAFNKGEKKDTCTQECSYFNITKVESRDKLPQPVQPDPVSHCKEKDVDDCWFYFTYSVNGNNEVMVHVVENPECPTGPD

B1: wild-type VCIP/PAP2b, HA-tagged, expressed from pLNCX2-VCIP-RGD (other)
chain: YPYDVPDYAYPYDVPDYAYPYDVPDYAMQNYKYDKAIVPESKNGGSPALNNNPRRSGSKRVLLICLDLFCLFMAGLPFLIIETSTIKPYHRGFYCNDESIKYPLKTGETINDAVLCAVGIVIAILAIITGEFYRIYYLKKSRSTIQNPYVAALYKQVGCFLFGCAISQSFTDIAKVSIGRLRPHFLSVCNPDFSQINCSEGYIQNYRCRGDDSKVQEARKSFFSGHASFSMYTMLYLVLYLQARFTWRGARLLRPLLQFTLIMMAFYTGLSRVSDHKHHPSDVLAGFAQGALVACCIVFFVSDLFKTKTTLSLPAPAIRKEILSPVDIIDRNNHHNMM
notes: Expressed in HEK293, SW480 and HUVEC cells; also called VCIP-RGD (WT); pLNCX2-PAP2b-RGD
B1: no binding (β-catenin); no binding (VE-cadherin); no binding (γ-catenin (plakoglobin)). B1: no binding [1]; no binding (CD36); no binding (Tie-2). For the same binder, the binding result (PECAM-1) was “no binding” and the “LEF-1 luciferase (TOPFLASH) activity in SW480 cells, fold reduction, construct B” value (p120catenin [2]) was ~3.2 fold.

B2: mutant VCIP/PAP2b-RGE, HA-tagged, expressed from pLNCX2-VCIP-RGE (other)
chain: YPYDVPDYAYPYDVPDYAYPYDVPDYAMQNYKYDKAIVPESKNGGSPALNNNPRRSGSKRVLLICLDLFCLFMAGLPFLIIETSTIKPYHRGFYCNDESIKYPLKTGETINDAVLCAVGIVIAILAIITGEFYRIYYLKKSRSTIQNPYVAALYKQVGCFLFGCAISQSFTDIAKVSIGRLRPHFLSVCNPDFSQINCSEGYIQNYRCRGEDSKVQEARKSFFSGHASFSMYTMLYLVLYLQARFTWRGARLLRPLLQFTLIMMAFYTGLSRVSDHKHHPSDVLAGFAQGALVACCIVFFVSDLFKTKTTLSLPAPAIRKEILSPVDIIDRNNHHNMM
For B2, the “LEF-1 luciferase (TOPFLASH) activity in SW480 cells, fold reduction, construct C” value (p120catenin [2]) was ~4.2 fold.

B3: PAP2b/VCIP retroviral construct E, lacking the entire C-terminal cytoplasmic segment (other, not shown: small tags and cut ends)
chain: MQNYKYDKAIVPESKNGGSPALNNNPRRSGSKRVLLICLDLFCLFMAGLPFLIIETSTIKPYHRGFYCNDESIKYPLKTGETINDAVLCAVGIVIAILAIITGEFYRIYYLKKSRSTIQNPYVAALYKQVGCFLFGCAISQSFTDIAKVSIGRLRPHFLSVCNPDFSQINCSEGYIQNYRCRGDDSKVQEARKSFFSGHASFSMYTMLYLVLYLQARFTWRGARLLRPLLQFTLIMMAFYTGLSRVSDHKHHPSDVLAGFAQGALVACCIVFFVSDLFKTKTT
notes: residues 1-283 follow from that; Expressed in endothelial cells, lysate used; also called Δ-C-Cyto-284-311; VCIP-Δ-C-cyto
B3: no binding (p120catenin [3]).

B4: GST-VCIP-RGD fusion protein (wild-type glutathione S-transferase-VCIP-RGD) (other)
chain: DIAKVSIGRLRPHFLSVCNPDFSQINCSEGYIQNYRCRGDDSKVQEARKS
modifications: cysteine pairing not given here; also: recombinant GST fusion
notes: also called GST-RGD-VCIP; recombinant VCIP-RGD; not shown: glutathione S-transferase (GST) encoded by the pGstag vector
B4: binds [4]; no binding (tested: 50-350 ng per well) (soluble α2β1 integrin); no binding (tested: 50-350 ng per well) (soluble αvβ5 integrin). B4: binds [5].
